Our source for the Kd values is article PMC4951027 (2016).

Broadly, the Kd is a measure of binding affinity in units of concentration. Higher therefore signals a looser complex.

Ends that are not written are not given here.

In the test the target is Fn N-terminal domain fragment (Fn-NTD) (human). As to the kind of experiment: ITC.
Chain of Fn N-terminal domain fragment (Fn-NTD) (human) (chain, as listed by the source): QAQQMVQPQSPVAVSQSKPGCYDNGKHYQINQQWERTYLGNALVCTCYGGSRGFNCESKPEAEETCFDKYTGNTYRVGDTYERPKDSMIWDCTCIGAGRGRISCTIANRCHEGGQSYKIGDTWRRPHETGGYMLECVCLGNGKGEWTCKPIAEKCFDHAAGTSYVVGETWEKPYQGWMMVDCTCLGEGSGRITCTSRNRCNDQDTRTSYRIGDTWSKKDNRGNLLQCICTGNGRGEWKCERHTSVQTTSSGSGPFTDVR

Molecule SYQFGGHNSVDFEEDTLPKVSGQNEGQQTIEEDTTPP (domain or fragment, also: fused to GST carrier (carrier not in chain)) [GST-FnBPA-11] came in with a Kd below 1 nM.
To KYEQGGNIVDIDFDSVPQIHGQNKGNQSFEEDTEKDKP (domain or fragment, also: fused to GST carrier (carrier not in chain)) [GST-FnBPA-9] belongs 7.3 nM; to KYEHGGNIIDIDFDSVPHIHGFNKHTEIIEEDTNKDKP (domain or fragment, also: fused to GST carrier (carrier not in chain)) [GST-FnBPA-10], 20 nM.
To NEKNGPIIQNNKFEYKEDTIKETLTGQYDKNLVTTVEEEYDS (domain or fragment, also: fused to GST carrier (carrier not in chain)) [GST-FnBPA-1] belongs 4.8 nM; to GGGQVTTESNLVEFDEESTKGIVTGAVSDHTTVEDTK (domain or fragment, also: fused to GST carrier (carrier not in chain)) [GST-FnBPA-5], 44 nM.
